Measured values reported in article PMC9482650, “Quantitative fragmentomics allow affinity mapping of interactomes” (Nature Communications, 2022).
Where a chain is given by its changes, count along the chain named.

T1: DLG3_1, Q92796
T1 sequence (Q92796 125-227, limits assumed, looked up): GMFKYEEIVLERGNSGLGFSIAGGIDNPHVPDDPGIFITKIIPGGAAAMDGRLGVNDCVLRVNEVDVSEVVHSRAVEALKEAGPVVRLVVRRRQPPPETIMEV

T2: DLG3_3, Q92796
T2 sequence (Q92796 374-475, limits assumed, looked up): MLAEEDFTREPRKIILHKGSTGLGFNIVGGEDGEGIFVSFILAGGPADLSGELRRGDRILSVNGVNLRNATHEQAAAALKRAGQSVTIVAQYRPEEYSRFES

T3: DVL3, Q92997
T3 sequence (Q92997 244-331, limits assumed, looked up): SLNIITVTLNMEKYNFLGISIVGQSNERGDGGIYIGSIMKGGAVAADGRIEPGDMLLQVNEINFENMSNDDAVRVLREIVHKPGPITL

T4: LIN7A, O14910
T4 sequence (O14910 103-200, limits assumed, looked up): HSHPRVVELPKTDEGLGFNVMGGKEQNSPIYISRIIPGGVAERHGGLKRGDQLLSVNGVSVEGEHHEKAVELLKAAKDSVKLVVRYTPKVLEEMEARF

T5: LIN7B, Q9HAP6
T5 sequence (Q9HAP6 88-185, limits assumed, looked up): T4 sequence (O14910 103-200, limits assumed, looked up) with S2A, V20I, I35V, E42D, H65Q, K77Q, D78G, K89R

T6: MPDZ_12, O75970
T6 sequence (O75970 1857-1958, limits assumed, looked up): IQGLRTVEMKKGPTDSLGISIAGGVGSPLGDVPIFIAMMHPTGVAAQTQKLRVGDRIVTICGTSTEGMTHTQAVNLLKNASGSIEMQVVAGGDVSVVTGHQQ

T7: PCLO, Q9Y6V0
T7 sequence (Q9Y6V0 4491-4600, limits assumed, looked up): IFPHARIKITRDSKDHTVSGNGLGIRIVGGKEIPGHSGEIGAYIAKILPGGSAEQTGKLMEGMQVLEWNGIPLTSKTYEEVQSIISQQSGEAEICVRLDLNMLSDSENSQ

T8: PTPN13_1, Q12923
T8 sequence (Q12923 1088-1188, limits assumed, looked up): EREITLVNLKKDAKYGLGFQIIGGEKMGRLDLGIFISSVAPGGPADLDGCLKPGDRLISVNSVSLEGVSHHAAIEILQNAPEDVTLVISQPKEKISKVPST

T9: SHANK1, Q9Y566
T9 sequence (Q9Y566 658-767, limits assumed, looked up): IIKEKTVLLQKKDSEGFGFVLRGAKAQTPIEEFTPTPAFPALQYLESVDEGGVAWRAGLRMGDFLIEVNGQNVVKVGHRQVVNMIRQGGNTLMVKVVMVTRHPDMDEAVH

T10: TX1BP3, O14907
T10 sequence (O14907 10-122, limits assumed, looked up): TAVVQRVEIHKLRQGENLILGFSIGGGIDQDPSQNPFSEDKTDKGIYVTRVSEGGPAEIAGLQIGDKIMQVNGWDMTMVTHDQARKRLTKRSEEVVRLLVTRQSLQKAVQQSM


These binders were tested against ARHGEF12, Q9NZN5-2 (assay: holdup assay). Conditions: plain residues with an end cap or a label only (N-terminal biotin on a linker: ado-ado).
Chain of ARHGEF12, Q9NZN5-2 (Q9NZN5 other isoform, or with tags, fused parts or gaps): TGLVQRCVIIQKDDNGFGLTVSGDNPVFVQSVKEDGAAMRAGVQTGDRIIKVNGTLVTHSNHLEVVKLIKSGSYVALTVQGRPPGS
Set-up: key: below the threshold = too weak to quantify, mostly under pKd 3.1 to 4
For GTMFLRETSL [GUCY1A2, P33402], the pKd was 4.93.

What follows are binders tested against DLG1_2, Q12959 (assay: holdup assay). Conditions: plain residues with an end cap or a label only (N-terminal biotin on a linker: ado-ado).
Chain of DLG1_2, Q12959 (Q12959 314-412): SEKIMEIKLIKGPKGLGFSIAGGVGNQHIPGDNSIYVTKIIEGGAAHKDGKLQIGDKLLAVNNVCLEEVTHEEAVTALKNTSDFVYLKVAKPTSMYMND
Set-up: key: below the threshold = too weak to quantify, mostly under pKd 3.1 to 4
Binder GTMFLRETSL [GUCY1A2, P33402] has a pKd of 4.81.

The binders below were run against T1, DLG3_1, Q92796 (assay: holdup assay). Conditions: plain residues with an end cap or a label only (N-terminal biotin on a linker: ado-ado).
Set-up: key: below the threshold = too weak to quantify, mostly under pKd 3.1 to 4
GTMFLRETSL [GUCY1A2, P33402] was tested, and the pKd was “below the threshold”.

What follows are binders tested against T2, DLG3_3, Q92796 (assay: holdup assay). Conditions: plain residues with an end cap or a label only (N-terminal biotin on a linker: ado-ado).
Set-up: key: below the threshold = too weak to quantify, mostly under pKd 3.1 to 4
In the case of GTMFLRETSL [GUCY1A2, P33402], the pKd is reported as 4.64.

The binders below were run against DLG5_1, Q8TDM6 (assay: holdup assay). Conditions: plain residues with an end cap or a label only (N-terminal biotin on a linker: ado-ado).
Chain of DLG5_1, Q8TDM6 (Q8TDM6 617-713): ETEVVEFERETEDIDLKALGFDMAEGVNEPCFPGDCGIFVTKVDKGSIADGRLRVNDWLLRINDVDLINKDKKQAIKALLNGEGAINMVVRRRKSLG
Set-up: key: below the threshold = too weak to quantify, mostly under pKd 3.1 to 4
For GTMFLRETSL [GUCY1A2, P33402], the pKd was “below the threshold”.

These binders were tested against T3, DVL3, Q92997 (assay: holdup assay). Conditions: plain residues with an end cap or a label only (N-terminal biotin on a linker: ado-ado).
Set-up: key: below the threshold = too weak to quantify, mostly under pKd 3.1 to 4
GTMFLRETSL [GUCY1A2, P33402] was tested, and the pKd was “below the threshold”.

What follows are binders tested against FRMPD2_1, Q68DX3 (assay: holdup assay). Conditions: plain residues with an end cap or a label only (N-terminal biotin on a linker: ado-ado).
Chain of FRMPD2_1, Q68DX3 (Q68DX3 770-861): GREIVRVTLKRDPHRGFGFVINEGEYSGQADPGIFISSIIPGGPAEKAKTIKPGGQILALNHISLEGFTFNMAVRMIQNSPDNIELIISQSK
Set-up: key: below the threshold = too weak to quantify, mostly under pKd 3.1 to 4
With GTMFLRETSL [GUCY1A2, P33402] the pKd was “below the threshold”.

The binders below were run against GOPC, Q9HD26 (assay: holdup assay). Conditions: plain residues with an end cap or a label only (N-terminal biotin on a linker: ado-ado).
Set-up: key: below the threshold = too weak to quantify, mostly under pKd 3.1 to 4
For GTMFLRETSL [GUCY1A2, P33402], the pKd was 4.43.

Each binder was assayed against GORASP2, Q9H8Y8 (assay: holdup assay). Conditions: plain residues with an end cap or a label only (N-terminal biotin on a linker: ado-ado).
Set-up: key: below the threshold = too weak to quantify, mostly under pKd 3.1 to 4
In the case of GTMFLRETSL [GUCY1A2, P33402], the pKd is reported as “below the threshold”.

What follows are binders tested against GRASP, Q7Z6J2 (assay: holdup assay). Conditions: plain residues with an end cap or a label only (N-terminal biotin on a linker: ado-ado).
Chain of GRASP, Q7Z6J2 (Q7Z6J2 96-193): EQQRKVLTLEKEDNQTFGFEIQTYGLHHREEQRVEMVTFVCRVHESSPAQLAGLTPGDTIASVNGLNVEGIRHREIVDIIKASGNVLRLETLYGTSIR
Set-up: key: below the threshold = too weak to quantify, mostly under pKd 3.1 to 4
With GTMFLRETSL [GUCY1A2, P33402] the pKd was 4.73.

Each binder was assayed against GRID2IP_1, A4D2P6 (assay: holdup assay). Conditions: plain residues with an end cap or a label only (N-terminal biotin on a linker: ado-ado).
Chain of GRID2IP_1, A4D2P6 (A4D2P6 1-87): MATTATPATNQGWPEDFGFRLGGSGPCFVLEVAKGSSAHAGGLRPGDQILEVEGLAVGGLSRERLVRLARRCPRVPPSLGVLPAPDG
Set-up: key: below the threshold = too weak to quantify, mostly under pKd 3.1 to 4
In the case of GTMFLRETSL [GUCY1A2, P33402], the pKd is reported as “below the threshold”.

The binders below were run against Inadl_1, Q8NI35 (assay: holdup assay). Conditions: plain residues with an end cap or a label only (N-terminal biotin on a linker: ado-ado).
Chain of Inadl_1, Q8NI35 (Q8NI35 113-229): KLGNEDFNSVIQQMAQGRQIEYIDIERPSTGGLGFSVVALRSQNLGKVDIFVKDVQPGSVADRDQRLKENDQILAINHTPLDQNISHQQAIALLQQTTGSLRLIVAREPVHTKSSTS
Set-up: key: below the threshold = too weak to quantify, mostly under pKd 3.1 to 4
In the case of GTMFLRETSL [GUCY1A2, P33402], the pKd is reported as “below the threshold”.

These binders were tested against Inadl_10, Q8NI35 (assay: holdup assay). Conditions: plain residues with an end cap or a label only (N-terminal biotin on a linker: ado-ado).
Chain of Inadl_10, Q8NI35 (Q8NI35 1673-1763): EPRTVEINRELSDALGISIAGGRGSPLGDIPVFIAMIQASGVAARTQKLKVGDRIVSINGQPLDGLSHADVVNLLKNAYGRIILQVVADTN
Set-up: key: below the threshold = too weak to quantify, mostly under pKd 3.1 to 4
With GTMFLRETSL [GUCY1A2, P33402] the pKd was “below the threshold”.

The binders below were run against Inadl_5, Q8NI35 (assay: holdup assay). Conditions: plain residues with an end cap or a label only (N-terminal biotin on a linker: ado-ado).
Chain of Inadl_5, Q8NI35 (Q8NI35 673-780): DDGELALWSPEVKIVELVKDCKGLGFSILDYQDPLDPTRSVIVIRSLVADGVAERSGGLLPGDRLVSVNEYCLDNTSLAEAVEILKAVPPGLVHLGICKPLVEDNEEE
Set-up: key: below the threshold = too weak to quantify, mostly under pKd 3.1 to 4
With GTMFLRETSL [GUCY1A2, P33402] the pKd was “below the threshold”.

These binders were tested against Inadl_9, Q8NI35 (assay: holdup assay). Conditions: plain residues with an end cap or a label only (N-terminal biotin on a linker: ado-ado).
Chain of Inadl_9, Q8NI35 (Q8NI35 1530-1615): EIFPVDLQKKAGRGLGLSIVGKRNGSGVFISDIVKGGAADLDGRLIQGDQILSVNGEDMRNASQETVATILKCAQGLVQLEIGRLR
Set-up: key: below the threshold = too weak to quantify, mostly under pKd 3.1 to 4
GTMFLRETSL [GUCY1A2, P33402] was tested, and the pKd was “below the threshold”.

Each binder was assayed against T4, LIN7A, O14910 (assay: holdup assay). Conditions: plain residues with an end cap or a label only (N-terminal biotin on a linker: ado-ado).
Set-up: key: below the threshold = too weak to quantify, mostly under pKd 3.1 to 4
With GTMFLRETSL [GUCY1A2, P33402] the pKd was 4.35.

What follows are binders tested against T5, LIN7B, Q9HAP6 (assay: holdup assay). Conditions: plain residues with an end cap or a label only (N-terminal biotin on a linker: ado-ado).
Set-up: key: below the threshold = too weak to quantify, mostly under pKd 3.1 to 4
In the case of GTMFLRETSL [GUCY1A2, P33402], the pKd is reported as 4.74.

Each binder was assayed against LNX1_1, Q8TBB1 (assay: holdup assay). Conditions: plain residues with an end cap or a label only (N-terminal biotin on a linker: ado-ado).
Chain of LNX1_1, Q8TBB1 (Q8TBB1 261-371): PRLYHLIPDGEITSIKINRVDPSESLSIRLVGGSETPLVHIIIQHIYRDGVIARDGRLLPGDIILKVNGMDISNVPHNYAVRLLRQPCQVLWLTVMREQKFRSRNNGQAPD
Set-up: key: below the threshold = too weak to quantify, mostly under pKd 3.1 to 4
With GTMFLRETSL [GUCY1A2, P33402] the pKd was 3.73.

What follows are binders tested against MAGI2_2, Q86UL8 (assay: holdup assay). Conditions: plain residues with an end cap or a label only (N-terminal biotin on a linker: ado-ado).
Chain of MAGI2_2, Q86UL8 (Q86UL8 410-522): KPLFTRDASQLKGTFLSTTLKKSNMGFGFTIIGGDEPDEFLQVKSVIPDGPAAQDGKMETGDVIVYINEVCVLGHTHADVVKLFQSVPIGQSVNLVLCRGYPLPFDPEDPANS
Set-up: key: below the threshold = too weak to quantify, mostly under pKd 3.1 to 4
In the case of GTMFLRETSL [GUCY1A2, P33402], the pKd is reported as 4.29.

These binders were tested against MAGI2_6, Q86UL8 (assay: holdup assay). Conditions: plain residues with an end cap or a label only (N-terminal biotin on a linker: ado-ado).
Chain of MAGI2_6, Q86UL8 (Q86UL8 1141-1229): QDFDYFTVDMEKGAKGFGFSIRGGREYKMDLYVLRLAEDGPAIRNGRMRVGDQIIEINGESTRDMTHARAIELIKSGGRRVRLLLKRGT
Set-up: key: below the threshold = too weak to quantify, mostly under pKd 3.1 to 4
GTMFLRETSL [GUCY1A2, P33402] was tested, and the pKd was 4.51.

Each binder was assayed against MAST2, Q6P0Q8 (assay: holdup assay). Conditions: plain residues with an end cap or a label only (N-terminal biotin on a linker: ado-ado).
Chain of MAST2, Q6P0Q8 (Q6P0Q8 1099-1202): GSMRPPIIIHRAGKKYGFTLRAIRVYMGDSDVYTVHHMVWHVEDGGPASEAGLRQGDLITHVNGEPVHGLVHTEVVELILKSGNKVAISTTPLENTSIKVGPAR
Set-up: key: below the threshold = too weak to quantify, mostly under pKd 3.1 to 4
GTMFLRETSL [GUCY1A2, P33402] gave a pKd of 5.68.

What follows are binders tested against T6, MPDZ_12, O75970 (assay: holdup assay). Conditions: plain residues with an end cap or a label only (N-terminal biotin on a linker: ado-ado).
Set-up: key: below the threshold = too weak to quantify, mostly under pKd 3.1 to 4
For GTMFLRETSL [GUCY1A2, P33402], the pKd was “below the threshold”.

The binders below were run against NHERF2_2, Q15599 (assay: holdup assay). Conditions: plain residues with an end cap or a label only (N-terminal biotin on a linker: ado-ado).
Chain of NHERF2_2, Q15599 (Q15599 142-238): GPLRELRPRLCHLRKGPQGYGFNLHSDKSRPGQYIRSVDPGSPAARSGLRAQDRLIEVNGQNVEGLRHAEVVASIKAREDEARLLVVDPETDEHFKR
Set-up: key: below the threshold = too weak to quantify, mostly under pKd 3.1 to 4
Work on GTMFLRETSL [GUCY1A2, P33402] yielded a pKd of 4.56.

The binders below were run against NHERF4_4, Q86UT5 (assay: holdup assay). Conditions: plain residues with an end cap or a label only (N-terminal biotin on a linker: ado-ado).
Chain of NHERF4_4, Q86UT5 (Q86UT5 464-550): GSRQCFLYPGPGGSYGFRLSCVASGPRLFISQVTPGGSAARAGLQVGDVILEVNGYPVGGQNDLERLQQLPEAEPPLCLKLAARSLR
Set-up: key: below the threshold = too weak to quantify, mostly under pKd 3.1 to 4
For GTMFLRETSL [GUCY1A2, P33402], the pKd was “below the threshold”.

The binders below were run against T7, PCLO, Q9Y6V0 (assay: holdup assay). Conditions: plain residues with an end cap or a label only (N-terminal biotin on a linker: ado-ado).
Set-up: key: below the threshold = too weak to quantify, mostly under pKd 3.1 to 4
With GTMFLRETSL [GUCY1A2, P33402] the pKd was “below the threshold”.

These binders were tested against T8, PTPN13_1, Q12923 (assay: holdup assay). Conditions: plain residues with an end cap or a label only (N-terminal biotin on a linker: ado-ado).
Set-up: key: below the threshold = too weak to quantify, mostly under pKd 3.1 to 4
In the case of GTMFLRETSL [GUCY1A2, P33402], the pKd is reported as “below the threshold”.

The binders below were run against T9, SHANK1, Q9Y566 (assay: holdup assay). Conditions: plain residues with an end cap or a label only (N-terminal biotin on a linker: ado-ado).
Set-up: key: below the threshold = too weak to quantify, mostly under pKd 3.1 to 4
For GTMFLRETSL [GUCY1A2, P33402], the pKd was 4.33.

These binders were tested against T10, TX1BP3, O14907 (assay: holdup assay). Conditions: plain residues with an end cap or a label only (N-terminal biotin on a linker: ado-ado).
Set-up: key: below the threshold = too weak to quantify, mostly under pKd 3.1 to 4
In the case of GTMFLRETSL [GUCY1A2, P33402], the pKd is reported as 5.31.
